# Reference: patent publication US20160340683A1, “NANOCARRIER BASED PLANT TRANSFECTION AND TRANSDUCTION” (HER MAJESTY THE QUEEN IN RIGHT OF CANADA AS REPRESENTED BY …, priority 2007, published 2016)
# B1: Gus protein: β-Glucuronidase (GUS; Sigma Aldrich, Escherichia coli Type VII-A), cargo used alone (protein, UniProt P05804 1-603, looked up)
# Beta-glucuronidase: MLRPVETPTREIKKLDGLWAFSLDRENCGIDQRWWESALQESRAIAVPGSFNDQFADADIRNYAGNVWYQREVFIPKGWAGQRIVLRFDAVTHYGKVWVNNQEVMEHQGGYTPFEADVTPYVIAGKSVRITVCVNNELNWQTIPPGMVITDENGKKKQSYFHDFFNYAGIHRSVMLYTTPNTWVDDITVVTHVAQDCNHASVDWQVVANGDVSVELRDADQQVVATGQGTSGTLQVVNPHLWQPGEGYLYELCVTAKSQTECDIYPLRVGIRSVAVKGEQFLINHKPFYFTGFGRHEDADLRGKGFDNVLMVHDHALMDWIGANSYRTSHYPYAEEMLDWADEHGIVVIDETAAVGFNLSLGIGFEAGNKPKELYSEEAVNGETQQAHLQAIKELIARDKNHPSVVMWSIANEPDTRPQGAREYFAPLAEATRKLDPTRPITCVNVMFCDAHTDTISDLFDVLCLNRYYGWYVQSGDLETAEKVLEKELLAWQEKLHQPIIITEYGVDTLAGLHSMYTDMWSEEYQCAWLDMYHRVFDRVSAVVGEQVWNFADFATSQGILRVGGNKKGIFTRDRKPKSAAFLLQKRWTGMNFGEKPQQGGKQ
# System: isolated microspores of Triticale (variety Sunray)
# Experiment: CPP delivery of GUS enzyme into isolated microspores, GUS staining
# Format: cell-based
# Details: GUS enzyme cargo:CPP 1:4, 1 hour at 37° C., three repeats
# Protocol: Triticale line Sunray grown in a growth cabinet with a photoperiod of 19 h day (intensity 300 μE m-2 s-1), and temperature 18-15° C. (day-night) with a relative humidity at about 70% was used as the donor plant material. The plants were fertilized every 2 weeks (20-20-20, 200 ppm) and treated with 2.5 ml I-1 Tilt™ (propiconazole, Syngenta) during the tillering stage and Intercept™ (0.004 g per litre of soil, Imidacloprid, Bayer) once sufficient root development was established. The first 10 tillers from each pot were harvested when the spike was at 3-4 cm, depending on the crop, from emergence from the boot. These tillers (to be used for microspore isolation) were subjected to pre-treatment in a refrigerator (4° C.) for 21 days with their bases in distilled water and their heads wrapped in aluminum foil. After 21±3 days of pre-treatment, the spikes were excised from their tillers and after an evaluation of their general appearance, only the most homogenous spikes were used. After confirming microspores at mid to bi-nucleate stage from a median floret, using acetocarmine staining, the tillers were processed for extraction.
# Awns were removed with scissors in a laminar flow hood. […] After counting the cells using a haemocytometer, aliquots of 100,000 cells in 200 μl volume were prepared in 2 ml microcentrifuge tubes to be ready for transduction. […]
molecule,measurement,value
B1,Average Transduction Efficiency,not capable of transducing itself
